# Data reported in patent publication US10293027B2, “Methods for treating metabolic disorders using FGF” (Salk Institute for Biological Studies, priority 2010, dated 2019).
# “Also recorded” adds a separate entry of the source.
# Tests used:
# Format in all cases: in vivo, mouse
# ob/ob mice [1] = experiment: Acute effects of FGF-1 on blood glucose: dose response and time courses after s.c. and i.v. administration (Example 6); details: for duration of blood glucose reduction after intravenous administration: 0.2 mg/kg i.v.
# Experimental: FIG. 8. Dose response effect of FGF-1 (s.c., mg/kg) on blood glucose levels of ob/ob mice.
# FIG. 9. Effect of FGF-1 (s.c., 0.5 mg/kg) on blood glucose levels of ob/ob mice.
# FIG. 10. Effect of intravenous FGF1 (0.2 mg/kg) on blood glucose levels of ob/ob mice.
# In order to establish the acute effects of FGF-1 on blood glucose levels, dose response curves (FIG. 8) and time courses after subcutaneous (FIG. 9) and intravenous (FIG. 10) administration were performed.
# ob/ob mice [2] = experiment: Chronic FGF-1 treatment for 36 days: glucose, food intake, body composition, serum lipids, liver (Examples 7-10)
# Experimental: Blood was collected by tail bleeding either in the ad libitum fed state or following overnight fasting. Free fatty acids (Wako), triglycerides (Thermo), and cholesterol (Thermo) were measured using enzymatic colorimetric methods following the manufacturer's instructions. Serum insulin levels were measured using an Ultra Sensitive Insulin ELISA kit (Crystal Chem). Serum adiponectin levels were measured by ELISA (Millipore). Plasma adipokine levels were measured using a Milliplex™ MAP kit (Millipore).
# Tissues were fixed in 4% phosphate-buffered formalin, embedded in paraffin, sectioned at 4 μm, and stained with hematoxylin and eosin according to standard procedures. For immunohistochemistry, tissues were deparaffinized in xylene and rehydrated. Slides were incubated with 5% normal donkey serum in PBS (+0.2% Triton-X100 and 1% BSA) for 30 min, and subsequently sections were incubated overnight with a 1:200 dilution of primary antibodies at 4° C. and using Alexa Fluor 488 or 595 as secondary antibodies for 2 hrs at RT.
# In Example 5, ob/ob male mice (8 wk old) were randomized into three groups and treated with daily subcutaneous (s.c.) injections of recombinant mouse FGF-1 (0.5 mg/kg in PBS), oral rosiglitazone (TZD, 5 mg/kg in 0.5% carboxymethyl cellulose), or vehicle. Blood glucose levels were measure in fed animals one hour after treatment. Total body composition analysis was performed using an EchoMRI-100™ (Echo Medical Systems, LLC).
# To investigate the metabolic effects of chronic FGF-1 treatment in ob/ob mice, eight weeks old male ob/ob mice were treated with vehicle or recombinant mouse FGF-1 (0.5 mg/kg/3 days, s.c.) for a period of 36 days. During this time, glucose levels, food intake, and body composition were monitored.
# ob/ob mice [3] = experiment: Insulin tolerance test after 4 weeks of chronic FGF-1 administration; details: after 4 weeks of chronic administration
# Experimental: Glucose tolerance tests (GTT) were conducted after overnight fasting. Mice were injected intraperitoneally (i.p.) with 1 g of glucose per/kg body weight, and blood glucose was monitored at 0, 15, 30, 60, 90, and 120 min using a OneTouch Ultra glucometer (Lifescan Inc). Insulin tolerance tests (ITT) were conducted after overnight fasting. Mice were injected i.p. with 0.5 U of insulin/kg body weight (Humulin R; Eli Lilly), and blood glucose was monitored at 0, 15, 30, 60, 90, and 120 min using a OneTouch Ultra glucometer (Lifescan Inc). Real-time metabolic analyses were conducted in an undisturbed room under 12 h/12 h light/dark cycles using a Comprehensive Lab Animal Monitoring System (Columbus Instruments).
# These tests were carried out as described above.
# [4] = tested on: db/db leptin receptor mutant diabetic mice; experiment: Single s.c. FGF-1 injection, blood glucose in db/db mice; details: single s.c. injection 0.5 mg/kg
# Description: FIG. 24. FGF-1 effects in db/db mice. […] The db/db model is considered to represent a […] diabetes model than ob/ob.
# The ob/ob model is considered to represent a very severe diabetic disease. In order to investigate the effect of FGF-1 on less severe diabetic/metabolic disorder models, we tested blood glucose levels in db/db mice and diet induced obese mice.
# ob/ob mice [5] = experiment: Single s.c. injection of human FGF1 or other FGFs, blood glucose in ob/ob mice (Examples 13, 14); details: 0.5 mg/kg s.c.
# Experimental: FIG. 26. Human recombinant FGF-1 is effective in mice.
# FIG. 27. Comparison of FGF1, FGF2, FGF9, and FGF10 effects. Single subcutaneous injection of FGFs (0.5 mg/kg) in ob/ob mice.
# As human recombinant FGF-1 is already being used in the clinic, the present methods of using it to treat metabolic disorders offer a straightforward regulatory path to treatment.
# As explained above, the FGF family of factors bind to members of the FGFR family of receptors with different specificities. FGF-1 binds preferentially to FGFR1 and FGFR4, and can be internalized into a cell expressing these receptors. To determine if other FGF proteins have similar metabolic effects as FGF-1, we tested blood glucose in ob/ob mice treated with FGF-2, FGF-9, and FGF-10 (0.5 mg/kg s.c.). This combination of FGF proteins binds to the spectrum of FGFRs.
# [6] = after the 36 day treatment period
molecule,measurement,setting,value
"FGF-1: recombinant mouse FGF-1 (acidic fibroblast growth factor), a secreted protein that binds heparin and FGF receptors (protein, UniProt P61148 16-155, looked up) Fibroblast growth factor 1: FNLPLGNYKKPKLLYCSNGGHFLRILPDGTVDGTRDRSDQHIQLQLSAESAGEVYIKGTETGQYLAMDTEGLLYGSQTPNEECLFLERLEENHYNTYTSKKHAEKNWFVGLKKNGSCKRGPRTHYGQKAILFLPLPVSSD",duration of blood glucose reduction after intravenous administration,ob/ob mice [1]; ob/ob mice,significantly reduced blood glucose for at least one week; also recorded: much longer lasting (at least one week)
same,duration of blood glucose reduction after intravenous administration,"ob/ob mice [1]; ob/ob mice, listed as FGF1",last up to one week
same,dose dependence of glucose reduction,ob/ob mice [1]; ob/ob mice,dramatic dose-dependent reduction of glucose levels
same,EC50 of glucose lowering effect,"ob/ob mice [1]; s.c., blood glucose of ob/ob mice, dose response",0.25 mg/kg
same,dose at which maximum glucose lowering effects are reached,"ob/ob mice [1]; s.c., ob/ob mice",0.5 mg/kg
same,onset of effect of subcutaneous dosing,"ob/ob mice [1]; s.c., ob/ob mice",effective within a matter of hours
same,blood glucose under chronic treatment,"ob/ob mice [2]; 0.5 mg/kg every third day s.c., 36 days",glucose levels are normalized by the first time point tested (day 2) and remain stable for the remainder of the test period; also recorded: completely normalized blood glucose
same,body weight / weight gain,ob/ob mice [2]; 0.5 mg/kg/3 days s.c.,remains lower than in untreated ob/ob mice; also recorded: reduced weight gain during the first week
same,food intake,ob/ob mice [2]; 0.5 mg/kg/3 days s.c.,"initially results in reduced food intake; also recorded: reduced food intake during the first 1-2 weeks of chronic administration, but after two weeks food intake returned to normal"
same,percent lean mass,ob/ob mice [2]; 0.5 mg/kg/3 days s.c.,significantly higher than in untreated mice; also recorded: increased lean mass as compared with control mice
same,total percent body fat,ob/ob mice [2]; 0.5 mg/kg/3 days s.c.,reduced percentage body fat; also recorded: reduced increase in percent body fat
same,hepatic glycogen,ob/ob mice [2]; [6],much higher; also recorded: increased levels of hepatic glycogen
same,hepatic steatosis (H&E staining of liver),ob/ob mice [2]; [6],"much less steatosis, and little if any inflammation; also recorded: Steatosis is dramatically reduced compared to control"
same,insulin tolerance / insulin sensitivity (ITT),ob/ob mice [3],increased insulin sensitivity
same,blood glucose in db/db mice,[4],effective for reducing blood glucose levels in both systems; also recorded: normalizes blood glucose
same,blood glucose in ob/ob mice after a single s.c. injection,ob/ob mice [5],Only FGF1 has glucose normalizing effects
